Assay results: paper PMC314469, “Protein Interaction Networks by Proteome Peptide Scanning” (PLoS Biology, 2004)
One block for each binder: values may come before it.

Legend:
[1] = target: T1, amphyphisin SH3 (AMPH_HUMAN), P49418; assay: SPOT array
T1 chain: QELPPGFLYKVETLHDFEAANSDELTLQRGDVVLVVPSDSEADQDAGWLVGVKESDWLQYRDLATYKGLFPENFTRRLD

[2] = target: endophilin SH3 (SH3G2_HUMAN), Q99962; assay: SPOT array

normalised SPOT signal, Boehringer light units (BLU); mean over the file's lines of this peptide [1]: 152 | normalised SPOT signal, Boehringer light units (BLU); mean over the file's lines of this peptide [2]: 146
B1: P21128 321-334 (peptide)
chain: SLSFIARPGKVSQL

normalised SPOT signal, Boehringer light units (BLU); mean over the file's lines of this peptide [1]: 143 | normalised SPOT signal, Boehringer light units (BLU); mean over the file's lines of this peptide [2]: 11600
B2: Q9UBP0 16-30 (peptide)
chain: SNPVPPRPPPPSLA

normalised SPOT signal, Boehringer light units (BLU); mean over the file's lines of this peptide [1]: 88.1 | normalised SPOT signal, Boehringer light units (BLU); mean over the file's lines of this peptide [2]: 74.5
B3: Q99776 220-233 (peptide)
chain: SLKIFRRPRKLFMQ

normalised SPOT signal, Boehringer light units (BLU); mean over the file's lines of this peptide [1]: 482 | normalised SPOT signal, Boehringer light units (BLU); mean over the file's lines of this peptide [2]: 90.9
B4: Q9P217 544-557 (peptide)
chain: SPDSLSRPRRTVFT

normalised SPOT signal, Boehringer light units (BLU); mean over the file's lines of this peptide [1]: 48.2 | normalised SPOT signal, Boehringer light units (BLU); mean over the file's lines of this peptide [2]: 78.5
B5: P51816 884-898 (peptide)
chain: SPAPPHKPPNTREN

normalised SPOT signal, Boehringer light units (BLU); mean over the file's lines of this peptide [1]: 169 | normalised SPOT signal, Boehringer light units (BLU); mean over the file's lines of this peptide [2]: 2170
B6: Q96RW7 70-83 (peptide)
chain: SLKRPKRPLFNFAL

normalised SPOT signal, Boehringer light units (BLU); mean over the file's lines of this peptide [1]: 2430 | normalised SPOT signal, Boehringer light units (BLU); mean over the file's lines of this peptide [2]: 190
B7: Q9Y469 13-26 (peptide)
chain: SPGVLRRPRRRPAA

normalised SPOT signal, Boehringer light units (BLU); mean over the file's lines of this peptide [1]: 52.9 | normalised SPOT signal, Boehringer light units (BLU); mean over the file's lines of this peptide [2]: 33
B8: O14686 4038-4051 (peptide)
chain: SPQEPKRPSQLPSP

normalised SPOT signal, Boehringer light units (BLU); mean over the file's lines of this peptide [1]: 120 | normalised SPOT signal, Boehringer light units (BLU); mean over the file's lines of this peptide [2]: 2110
B9: Q9ULS2 141-154 (peptide)
chain: SPIKPKRPFVESNV

normalised SPOT signal, Boehringer light units (BLU); mean over the file's lines of this peptide [1]: 33.5 | normalised SPOT signal, Boehringer light units (BLU); mean over the file's lines of this peptide [2]: 256
B10: O95428 745-758 (peptide)
chain: SLHGPRRPQPGASG

normalised SPOT signal, Boehringer light units (BLU); mean over the file's lines of this peptide [1]: 15.7 | normalised SPOT signal, Boehringer light units (BLU); mean over the file's lines of this peptide [2]: 35.9
B11: Q16204 419-432 (peptide)
chain: SPDKFKRPTPPPSP

normalised SPOT signal, Boehringer light units (BLU); mean over the file's lines of this peptide [1]: 568 | normalised SPOT signal, Boehringer light units (BLU); mean over the file's lines of this peptide [2]: 754
B12: Q9UQ90 30-43 (peptide)
chain: SPGFPARPGRGRPY

normalised SPOT signal, Boehringer light units (BLU); mean over the file's lines of this peptide [1]: 2120 | normalised SPOT signal, Boehringer light units (BLU); mean over the file's lines of this peptide [2]: 18000
B13: Q8WWW8 303-317 (peptide)
chain: SNTPPPRPPKPSHL

normalised SPOT signal, Boehringer light units (BLU); mean over the file's lines of this peptide [1]: 58.5 | normalised SPOT signal, Boehringer light units (BLU); mean over the file's lines of this peptide [2]: 744
B14: O94848 219-232 (peptide)
chain: SMFFIRRPTLDINW

normalised SPOT signal, Boehringer light units (BLU); mean over the file's lines of this peptide [1]: 120 | normalised SPOT signal, Boehringer light units (BLU); mean over the file's lines of this peptide [2]: 71.5
B15: Q9H0X9 173-186 (peptide)
chain: SSELIERPSKKDGF

normalised SPOT signal, Boehringer light units (BLU); mean over the file's lines of this peptide [1]: 127 | normalised SPOT signal, Boehringer light units (BLU); mean over the file's lines of this peptide [2]: 1450
B16: Q92777 445-459 (peptide)
chain: SKTPPQRPPPQGGP

normalised SPOT signal, Boehringer light units (BLU); mean over the file's lines of this peptide [1]: 5540 | normalised SPOT signal, Boehringer light units (BLU); mean over the file's lines of this peptide [2]: 9620
B17: O14746 231-244 (peptide)
chain: SLPLPKRPRRGAAP

normalised SPOT signal, Boehringer light units (BLU); mean over the file's lines of this peptide [1]: 3220 | normalised SPOT signal, Boehringer light units (BLU); mean over the file's lines of this peptide [2]: 150
B18: Q9BXQ6 174-187 (peptide)
chain: SSGSPDRPGRRGRR

normalised SPOT signal, Boehringer light units (BLU); mean over the file's lines of this peptide [1]: 3810 | normalised SPOT signal, Boehringer light units (BLU); mean over the file's lines of this peptide [2]: 1950
B19: P30084 9-23 (peptide)
chain: SARGPLRPPVRSPA

normalised SPOT signal, Boehringer light units (BLU); mean over the file's lines of this peptide [1]: 51.4 | normalised SPOT signal, Boehringer light units (BLU); mean over the file's lines of this peptide [2]: 969
B20: Q9UFD8 131-145 (peptide)
chain: SAVGPNRPPTVSQP

normalised SPOT signal, Boehringer light units (BLU); mean over the file's lines of this peptide [1]: 47.9 | normalised SPOT signal, Boehringer light units (BLU); mean over the file's lines of this peptide [2]: 67.1
B21: Q15742 478-492 (peptide)
chain: SPSVPAKPPLAEFE

normalised SPOT signal, Boehringer light units (BLU); mean over the file's lines of this peptide [1]: 587 | normalised SPOT signal, Boehringer light units (BLU); mean over the file's lines of this peptide [2]: 437
B22: Q13421 406-419 (peptide)
chain: SPQAPRRPLPQVAT

normalised SPOT signal, Boehringer light units (BLU); mean over the file's lines of this peptide [1]: 219 | normalised SPOT signal, Boehringer light units (BLU); mean over the file's lines of this peptide [2]: 0
B23: Q9UPM8 1026-1039 (peptide)
chain: SLLDFIRPLKISSD

normalised SPOT signal, Boehringer light units (BLU); mean over the file's lines of this peptide [1]: 1290 | normalised SPOT signal, Boehringer light units (BLU); mean over the file's lines of this peptide [2]: 4830
B24: O94883 131-144 (peptide)
chain: SPRLPRRPTVESHH

normalised SPOT signal, Boehringer light units (BLU); mean over the file's lines of this peptide [1]: 96.2 | normalised SPOT signal, Boehringer light units (BLU); mean over the file's lines of this peptide [2]: 866
B25: Q9HCG4 261-274 (peptide)
chain: SLALPRRPQNRDSI

normalised SPOT signal, Boehringer light units (BLU); mean over the file's lines of this peptide [1]: 51 | normalised SPOT signal, Boehringer light units (BLU); mean over the file's lines of this peptide [2]: 77.2
B26: Q13112 538-551 (peptide)
chain: SPPELKRPRLDENK

normalised SPOT signal, Boehringer light units (BLU); mean over the file's lines of this peptide [1]: 78.1 | normalised SPOT signal, Boehringer light units (BLU); mean over the file's lines of this peptide [2]: 199
B27: Q9P206 440-453 (peptide)
chain: SLRKLKRPPPPPRR

normalised SPOT signal, Boehringer light units (BLU); mean over the file's lines of this peptide [1]: 70 | normalised SPOT signal, Boehringer light units (BLU); mean over the file's lines of this peptide [2]: 1480
B28: Q9H5L8 147-160 (peptide)
chain: SLMTPRRPLSTSEK

normalised SPOT signal, Boehringer light units (BLU); mean over the file's lines of this peptide [1]: 1010 | normalised SPOT signal, Boehringer light units (BLU); mean over the file's lines of this peptide [2]: 1210
B29: O94807 430-443 (peptide)
chain: SPRALWRPPRRRTQ

normalised SPOT signal, Boehringer light units (BLU); mean over the file's lines of this peptide [1]: 56.4 | normalised SPOT signal, Boehringer light units (BLU); mean over the file's lines of this peptide [2]: 69.3
B30: Q03164 2117-2131 (peptide)
chain: SPPSPDRPPHSQTS

normalised SPOT signal, Boehringer light units (BLU); mean over the file's lines of this peptide [1]: 78.6 | normalised SPOT signal, Boehringer light units (BLU); mean over the file's lines of this peptide [2]: 1690
B31: Q96RJ6 21-34 (peptide)
chain: SLASPRRPLLSDFA

normalised SPOT signal, Boehringer light units (BLU); mean over the file's lines of this peptide [1]: 547 | normalised SPOT signal, Boehringer light units (BLU); mean over the file's lines of this peptide [2]: 5840
B32: Q8WVQ2 69-83 (peptide)
chain: SPGPPYRPPSQRLR

normalised SPOT signal, Boehringer light units (BLU); mean over the file's lines of this peptide [1]: 49.6 | normalised SPOT signal, Boehringer light units (BLU); mean over the file's lines of this peptide [2]: 44.5
B33: Q9NZ56 228-242 (peptide)
chain: SMGPPSKPPDEEHR

normalised SPOT signal, Boehringer light units (BLU); mean over the file's lines of this peptide [1]: 55.1 | normalised SPOT signal, Boehringer light units (BLU); mean over the file's lines of this peptide [2]: 94.9
B34: Q9Y6V0 260-274 (peptide)
chain: SLPSPSKPPIQQPT

normalised SPOT signal, Boehringer light units (BLU); mean over the file's lines of this peptide [1]: 13800 | normalised SPOT signal, Boehringer light units (BLU); mean over the file's lines of this peptide [2]: 8710
B35: Q9H8S7 107-120 (peptide)
chain: SPARPRRPHASRDG

normalised SPOT signal, Boehringer light units (BLU); mean over the file's lines of this peptide [1]: 509 | normalised SPOT signal, Boehringer light units (BLU); mean over the file's lines of this peptide [2]: 3100
B36: Q9P0U4 231-244 (peptide)
chain: SLPRPRRPLPTQQQ

normalised SPOT signal, Boehringer light units (BLU); mean over the file's lines of this peptide [1]: 228 | normalised SPOT signal, Boehringer light units (BLU); mean over the file's lines of this peptide [2]: 117
B37: P01042 611-624 (peptide)
chain: SPKSPGRPWKSVSE

normalised SPOT signal, Boehringer light units (BLU); mean over the file's lines of this peptide [1]: 53.7 | normalised SPOT signal, Boehringer light units (BLU); mean over the file's lines of this peptide [2]: 2480
B38: Q9HCU4 2269-2282 (peptide)
chain: SLRVPKRPIINTPV

normalised SPOT signal, Boehringer light units (BLU); mean over the file's lines of this peptide [1]: 40.4 | normalised SPOT signal, Boehringer light units (BLU); mean over the file's lines of this peptide [2]: 72.4
B39: Q9UHI4 161-175 (peptide)
chain: SLVLPSRPPIGLPP

normalised SPOT signal, Boehringer light units (BLU); mean over the file's lines of this peptide [1]: 1270 | normalised SPOT signal, Boehringer light units (BLU); mean over the file's lines of this peptide [2]: 1880
B40: Q9UKN7 661-675 (peptide)
chain: SPPVPPRPPSSGPP

normalised SPOT signal, Boehringer light units (BLU); mean over the file's lines of this peptide [1]: 22.1 | normalised SPOT signal, Boehringer light units (BLU); mean over the file's lines of this peptide [2]: 65.4
B41: Q9BYK8 558-571 (peptide)
chain: SLEVIRRPETKVLI

normalised SPOT signal, Boehringer light units (BLU); mean over the file's lines of this peptide [1]: 62.1 | normalised SPOT signal, Boehringer light units (BLU); mean over the file's lines of this peptide [2]: 319
B42: O00294 24-37 (peptide)
chain: SPEAPRRPKQRPAP
